Assay results as given in patent JPH11127861A (dated 1999).

These binders were tested against HCV serine protease Cpro-2 (NS3 protein, p70) (C型肝炎ウイルス (株名 HCV-J)) (assay: cell-based or functional assay).

| Binder | IC50, HCVプロテアーゼ阻害活性 (組換え基質MBP-NS5A/5B-ADK) [µM] |
| --- | --- |
| TDYVLIW [CDR-H1-7 (7 amino acid peptide: the 5 residues of H chain CDR1 with one residue left at each end)] | 165 |
| NSNPYYGRTSYNLKFKG [CDR-H2 (17 amino acid peptide, CDR2 of the mAb 8D4 H chain)] | 229 |
| GYSFTDYVLIWVKQS [CDR-H1 (15 amino acid peptide containing CDR1 of the mAb 8D4 H chain)] | 20.8 |
